Experimental data taken from patent US9512428B2, “Method of deriving mature hepatocytes from human embryonic stem cells” (Wisconsin Alumni Research Foundation, priority 2012, dated 2016).
Entries after “also recorded” stand apart in the source; their conditions may differ.

Experiments:
CYP1A2 = CYP1A2 induction by omeprazole in transduced hESC-derived hepatocytes (quantitative PCR); format: in vitro ADME, human
Method: Induction of this enzyme was also measured in HepG2 human hepatocytes and in fresh primary human hepatocytes. Expression was measured by quantitative PCR, and the expression levels are shown as GAPDH normalized gene expression values (RQ values or relative quantity values. Error bars indicate RQ min and RQ max values).
(RQ values or relative quantity values. Error bars indicate RQ min and RQ max values).
Omeprazole and rifampicin (also known as rifampin; Sigma) were added to DMEM at 100 μM and 10 μM respectively for 3 days. The resulting medium was analyzed by mass spectrometry. Metabolites of the tested drugs, omeprazole sulfone (Santa Cruz Biotechnology), 5-hydroxy omeprazole (Cachesyn), and desacetyl rifampicin (Santa Cruz Biotechnology) were dissolved in DMEM to prepare standard curves.

hESC derived hepatocytes [1] = test: Rifampin metabolism to 25-des acetyl rifampin in hESC derived hepatocytes (LC-MS/MS); details: hESC derived hepatocytes co-transduced with let-7c and mir-122, 72 hours incubation
[2] = test system: hES cell-derived fetal hepatocytes; test: QPCR of liver genes in hES cell-derived fetal hepatocytes after lentiviral transduction of mir-122; format: cell-based, human
Source text: We next determined whether forced expression of mir-122 in the hES cell-derived fetal hepatocytes could program these cells to a more mature differentiated state. We expressed mir-122 in the fetal hepatocytes by lentiviral transduction. Using this method, we achieved ˜5% transduction efficiency (see FIG. 2 GFP positive cells).
These GFP positive cells were then FACS sorted, and RNA was isolated for QPCR measurements of functional genes.
H1 hES cells (J. A. Thomson et al., Science (1998) 282: 1145-1147) cultured in E8 medium (Chen et al., 2011 Nature Methods 8(5) 424-9) were differentiated to fetal hepatocytes lacking functional hepatic enzyme activity following a previously published protocol (see J. Cai et al., Hepatology (2007) 45: 1229-1239), with some modifications. Briefly, the hES cells at approximately 50% confluency were treated with 0.5 mg/ml Albumin fraction V (Sigma) and 100 ng/ml Activin A (Sigma) for 3 days. On the second day of treatment, 0.1% Insulin-transferrin-Selenium (Sigma) was added, and on the third day of treatment, 1.0% Insulin-transferrin-Selenium (Sigma) was added. From day four to day eight, the cells were treated with 30 ng/ml FGF4 (R&D Systems) along with 20 ng/ml BMP2. From days nine through thirteen, 20 ng/ml HGF (R&D Systems) were added to the medium, and finally, the cells were treated for five days with 10 ng/ml Oncostatin M (R&D Systems) and 0.1 μM Dexamethasone (Sigma). Throughout differentiation, hepatocyte growth medium (Promocell) was used as a base medium and cells were kept on Matrigel™ coated plates. […] hepatocytes were obtained for comparison studies (Celsis).
Mir-122 was transduced into the hES derived cells having hepatocyte morphology by a lentiviral vector pEZX-MR01 (Genecoepoeia). Approximately ˜5% of cells were transduced, as measured by GFP expression.
In this example, we performed a QRT PCR comparison of the gene expression levels of the mature hepatocytes produced from human embryonic stem cells according to the procedure outlined in Example 1 (ES hepatocyte expressing mir-122), the expression levels for the same proteins in human primary hepatocytes (Human hepatocyte), the expression levels for the same proteins in the fetal hepatocytes before transduction (ES hepatocyte), and the expression levels for the same proteins in HepG2 cells.

[3] = test system: primary human hepatocytes; test: Functional gene expression over time in primary human hepatocytes transduced with mir-122 (QPCR); format: cell-based
Method: FIGS. 6A through 6E are a bar graphs showing that lentivirus mediated DNA transfer to primary hepatocytes derived directly from liver tissue results in improved hepatic protein expression over time, as compared to control primary hepatocytes. Expression is shown for albumin (FIG. 6A), tyrosine aminotransferase (TAT) (FIG. 6B), and the CYP 450 enzymes CYP1A2 (FIG. 6C), CYP3A4 (FIG. 6D) and CYP7A1 (FIG. 6E). Expression was measured by quantitative PCR, and the reported values were normalized by GAPDH expression (RQ or relative quantity values, error bars representing standard error, RQ min and RQ max). Expression values are shown for each gene at the time the culture was established (0 day) and 9, 13 or 19 days later.
We cultured primary human hepatocytes (both control hepatocytes and hepatocytes into which vectors were transferred to express mir-122). Mir-122 was transduced into these primary hepatocytes using the lentiviral vector PEZX-MR01. GFP expressing cells were FACS sorted before RNA isolation and gene expression measurements using QPCR.

hepatitis B virus (HBV) = test: HBV infection and replication in transduced hESC-derived hepatocytes (viral genome QPCR); format: cell-based
Method: FIG. 8 is a bar graph showing that HBV infects and replicates in human embryonic stem cell-derived hepatocytes. Number of copies of the HBV genome is reported for human embryonic stem cell-derived hepatocytes transduced with mir-122 infected with HBV (es heps with miRNA), positive control (human heps), and negative controls (hepg2). The copy numbers were calculated by QPCR. QPCR standard curve was prepared by serial dilution of LJ144, a construct that contains the whole viral genome. Both LJ144 and QPCR primers were disclosed by Watanabe et al. (PNAS 2007 104 (24)).
The copy numbers were calculated by QPCR. QPCR standard curve was prepared by serial dilution of LJ144, a construct that contains the whole viral genome. Both LJ144 and QPCR primers were disclosed by Watanabe et al. (PNAS 2007 104 (24)). […]
Infected cells were lysed at 6 days post-infection and treated with micrococcal nuclease. […] QPCR was performed to quantify the viral genomes present in the isolated DNA using the QPCR primers disclosed by Watanabe et al. (PNAS 2007 104 (24)). […]
Infectious HBV virions were concentrated from media of HepAD38 cells (Ladner et al. 1997) by PEG 8000 precipitation followed by centrifugation. […] Viral genome copy numbers were quantified by QPCR using primers previously published (see Watanabe et al. 2007). […]

hESC derived hepatocytes [4] = test: QPCR of liver genes in hESC derived hepatocytes transduced with let-7c alone or with mir-122; format: cell-based, human; details: GAPDH normalized, versus non-transduced hESC derived hepatocytes
Method: (§1) Expression of albumin was also measured in HepG2, a human hepatoma cell line (hepg2). Expression was measured by quantitative PCR. Indicated expression levels (on the Y axis) are GAPDH normalized gene expression values called RQ values (relative quantity values), with HepG2 expression assigned a relative value of 1. Error bars indicate RQ min and RQ max values calculated on 1 standard deviation. All RQ, RQ min and RQ max values were calculated with ViiA7 software on Applied Biosystems QPCR system.
as §1, with “CYP7A1” for “albumin”
as §1, with “CYP3A4” for “albumin”
as §1, with “AFP” for “albumin”
Expression of AFP was also measured in HepG2, a human hepatoma cell line (hepg2). Expression was measured by quantitative PCR.

COc1ccc2[nH]c([S+]([O-])Cc3ncc(C)c(OC)c3C)nc2c1 (centres unmarked) [omeprazole]
induction of CYP1A2 upon drug challenge (CYP1A2; hESC-derived hepatocytes transduced with both mir-122 and let-7c, versus non-drug treated (ND) cells): strongly induced; also recorded: induced the expression | induction of CYP1A2 upon drug challenge (CYP1A2; hESC-derived hepatocytes with let-7c alone, no concurrent mir-122): did not elicit induction | expression of CYP1A2 upon addition of drug (CYP1A2; mir-122 transduced hES cell-derived hepatocytes, 100 μM for 3 days): substantially up-regulated

CO[C@H]1/C=C/O[C@@]2(C)Oc3c(C)c(O)c4c(O)c(c(/C=N/N5CCN(C)CC5)c(O)c4c3C2=O)NC(=O)/C(C)=C\C=C\[C@H](C)[C@H](O)[C@@H](C)[C@@H](O)[C@@H](C)[C@H](OC(C)=O)[C@@H]1C [rifampicin]
efficiency of metabolism to 25-des acetyl rifampin (hESC derived hepatocytes [1]): comparable to primary human hepatocytes

B1: mir-122: human microRNA mir-122 (pre-miRNA SEQ ID NO:1, mature SEQ ID NO:2); coding DNA transferred by lentiviral vector (nucleic acid, listed as Homo sapiens)
chain 1: CCUUAGCAGAGCUGUGGAGUGUGACAAUGGUGUUUGUGUCUAAACUAUCAAACGCCAUUAUCACACUAAAUAGCUACUGCUAGGC
chain 2: UGGAGUGUGACAAUGGUGUUUG
expression of functional genes (quantitative PCR) ([2]; GFP positive FACS sorted hES cell-derived hepatocytes expressing miR-122): significant up-regulation | expression of functional genes (alb, tat, CYP1A2, CYP7A1, CYP3A4, aat) compared with primary hepatocytes ([2]; QRT PCR, transduced mature hepatocytes versus human primary hepatocytes): equal or greater expression than in primary hepatocytes | transduction efficiency ([2]; lentiviral transduction, GFP positive cells): ~5% | alpha-feto protein expression ([2]; mir-122 expressing hESC-derived hepatocytes): not down-regulated | CYP gene expression compared with fresh hepatocytes (day 0) ([3]; mir-122 expressing primary hepatocytes in culture): equal or greater amount | mRNA levels of functional genes that decreased in control culture ([3]; primary hepatocytes cultured 9 days or more, overexpressing mir-122): regained their expression | HBV genomes present per well (hepatitis B virus (HBV); mir-122 transduced hESC-derived hepatocytes, 6 days post-infection): presence of HBV genomes

B2: let-7c: human microRNA let-7c (pre-miRNA SEQ ID NO:3, mature SEQ ID NO:4); coding DNA transferred by lentiviral vector pEZX-MR03 (nucleic acid, listed as Homo sapiens)
chain 1: GCAUCCGGGUUGAGGUAGUAGGUUGUAUGGUUUAGAGUUACACCCUGGGAGUUAACUGUACAACCUUCUAGCUUUCCUUGGAGC
chain 2: UGAGGUAGUAGGUUGUAUGGUU
productive infection by HBV (relative number of copies of the HBV genome) (hepatitis B virus (HBV); transduced versus non-transduced hESC-derived hepatocytes, seventh day after infection): significantly down-regulated | AFP (alpha-feto protein) expression (hESC derived hepatocytes [4]): down-regulated | CYP1A2 expression (hESC derived hepatocytes [4]): up-regulated | CYP3A4 expression (hESC derived hepatocytes [4]): up-regulated | CYP7A1 expression (hESC derived hepatocytes [4]): up-regulated | albumin expression (hESC derived hepatocytes [4]): up-regulated
